Laboratory results as given in PMC3093407.

Experiments:
[1] = target: CFP-tagged human αA-crystallin wild-type (human) (UniProt P02489); assay: FRET or BRET; acceptor photobleaching in living HeLa cells co-transfected for 48 h; CFP fusion as donor, YFP fusion as acceptor bleached at 514 nm; FRET efficiency from ten images per construct, three experiments; room temperature
[2] = target: CFP-tagged human αB-crystallin wild-type (human) (UniProt P02511); assay: as above
Chain of UniProt P02511 (P02511 whole entry): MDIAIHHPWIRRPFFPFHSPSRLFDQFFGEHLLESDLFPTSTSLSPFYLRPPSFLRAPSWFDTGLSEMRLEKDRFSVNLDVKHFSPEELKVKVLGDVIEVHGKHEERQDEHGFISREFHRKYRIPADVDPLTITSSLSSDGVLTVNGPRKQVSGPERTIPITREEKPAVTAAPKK

Row | FRET efficiency against αAwt/αAwt [1] | FRET efficiency against αBwt/αAwt [2] [fold] | Substance
1 | 30 % lower |  | YFP-tagged C-terminal truncated human αA-crystallin αA162 (from UniProt P02489 1-162) (domain or fragment)
2 | 30 % lower |  | YFP-tagged C-terminal truncated human αA-crystallin αA168 (from UniProt P02489 1-168) (domain or fragment)
3 | 50 % higher | 2 | YFP-tagged C-terminal truncated human αA-crystallin αA172 (from UniProt P02489 1-172) (domain or fragment)
